# Data: publication PMC2564605 (Journal of molecular biology, 2008)
# B1: His-tagged aquaporin-9 (natural protein, UniProt P56627 1-295, looked up)
# chain: MPSEKDGAKKSLMQRLALKSRIAKETLSEFLGTFIMIVLGCSSIAQAVLSRERFGGIITINIGFASAVVMALYVTFGISGGHINPAVSFAMCAFGRMEWFKFPFYVGAQFLGAFVGAATVFGIYYDGLMAFAGGKLLVVGENATAFIFATYPAPFISTPGAFVDQVVSTMFLLLIVFAMFDSRNLGVPRGLEPVVIGLLIIVLSCSLGLNSGCAMNPARDLSPRLFTALAGWGFEVFTVGNNFWWIPVVGPMIGAFLGGLIYILFIQMHHSKLDPDMKAEPSENNLEKHELSVIM
# modifications: unglycosylated (~32 kDa) and glycosylated (~35 kDa) forms
# Target: the molecule itself
# Assay: SDS-PAGE and Western blot
protein,measurement,value
B1,stoichiometry N,2
